Reference: the DeepSol protein solubility set

Assay: soluble on expression in E. coli; label from the status in PepcDB or PDB records

Soluble on expression in E. coli, not soluble:
KYPFLREAGSSFKDRDVTKMSDLIATWDGQDIKGPALIGVPLSKSSISHSGASFAPGTIRQALKHSSAYSAELGEHVVSELLYDLGDIDIHVTDIVKSHHHIFQTMHALLSDHPDWVPLILGGDNSISYSTIKAIAQTKGTTAVIQFDAHHDVRNTEDGGPTNGTPFRRLLDEEIIEGQHLIQLGIREFSNSQAYEAYAKKHNVNIHTMDMIREKGLIPTIKEILPVVQDKTDFIFISVDMDVLDQSHAPGCPAIGPGGLYTDELLEAVKYIAQQPNVAGIEIVEVDPTLDFRDMTSRAAAHVLLHALK, LDGIAELTGARVEDLAGMDVFQGCPAEGLVSLAASVQPLRAAAGQVLLRQGEPAVSFLLISSGSAEVSHVGDDGVAIIARALPGMIVGEIALLRDSPRSATVTTIEPLTGWTGGRGAFATMVHIPGVGERLLRTARQRLAAFVSPIPVRLADGTQLMLRPVLPGDRERTVHGHIQFSGETLYRRFMSARVPSPALMHYLSEVDYVDHFVWVVTDGSDPVADARFVRDETDPTVAEIAFTVADAYQGRGIGSFLIGALSVAARVDGVERFAARMLSDNVPMRTIMDRYGAVWQREDVGVITTMIDVPGPGELSLGREMVDQINRVARQVIEAVG, LDNAPLLELDVQEWVNHEGLSNEDLRGKVVVVEVFQMLCPGCVNHGVPQAQKIHRMIDESQVQVIGLHSVFEHHDVMTPEALKVFIDEFGIKFPVAVDMPREGQRIPSTMKKYRLEGTPSIILADRKGRIRQVQFGQVDDFVLGLLLGSLLSETD, LDRAYLRVENQRYRDKLEAANRELQASLNLLQEDQNAGRQVQMNMLPVTPWSIEGLEFSHRIIPSLYLSGDFVDYFRVDERRVAFYLADVSGHGASSAFVTVLLKFMTTRLLYESRRNGTLPEFKPSEVLAHINRGLINTKLGKHVTMLGGVIDLEKNSLTYSIGGHLPLPVLFVEGQAGYLEGRGLPVGLFDDATYDDRVMELPPSFSLSLFSDGILDVLPGATLKEKEASLPEQVAAAGGTLDGLRQVFGLANLAEMPDDIALLVLSRNLA, LEDFNVTSKVIELDVRKPTPEAAENLNIGMDEDIYYVKRVRYINGQTLCYEESYYTKSIVTYLNNEIVSHSIFHYIREGLGLKIGFSDLFLHVGQLNEEEAEYLGLEAGLPKLYIESIFHLTNGQPFDYSKISYNYEQSQ, LETLNNASKTIDLQGKISDVDGDTLSITLHGSARFSLNGTQVTFTPNGFVGLDQAVYSVEDGKGGYALANIVAISEDANPPVPNMAPTANDAQFTLDVAKNVTFNIDLVAQRLIADADGDALSIAHIYTANNRATKQGATGITYTPGAFRGVDQFTYVITDGKDGYAINAITVVVNDSTPANKIPTAGPVTAKMLHNDPAITISVNSAVSDADGDTLKIVSISGALGQASINPANALEMLYEPKGFVGTDRFVYVVSDDNGGYAMGEVTVTVTDSNPTAPVANTVQENTLLDTPINIDLSAYISDKETETANLVISNVTNATSPAVATLSGQTVIYTPNGFTGNDILTYTVTDGRHSTNGTIVISVNAHGAHAIQADNLEGGTEPNAPFIHDLSALISTTDPTAGELIVVNAIGGALGTATVTNNILTYTPKLGVFGKDRLIYTVKDSHNPAHYTQGTISI, LFEMGLQRYLESGLRNESENLLVALVRGPAGLQLDDHRLSGAYQRPLSGHYFRMDLPQGHWRSRSLWDFELPQPGVGLHANLELGKTVQSLLMLTSEYRKFGKQISITVAQDYTPVRASFR, LFPSFLKPLAAHALELALNRLLTLDPDTSQALRTLDGQCIALSLKTPAVELQIRVDGECLRVGPVDAAYEMDLKVHGTLAGFLGQLPWLEQVRRAGGAQTGRLRVAGDAELAQRLQQLARRFDPDWQQPFIVVFGELLGVQIAGVLRMTLRQLQRSAVDLAQSAAEFITEESSSVVPRAELEAFYEDVDVLRDDVERLATRLMKLCSEMAA, LGECLADLAVDALIDEAELSPKPALVDRRGNGAHADLHLGLMQASALSLWPCFKEMADAAQRHGRIDARLRGVLGQLGRDGEAAMLRTTEGVNTHRGAIWALGLLVAAAALEPRRTQAGEVAARAGRIALLDDPAAAIGDSHGERVRRRYGVGGAREEARLCFPRAVRHGLPQLWRSREGGAGEQNARLDALLAIMSVLDDTCVLHRAGRVGLAAMQDGARAVLAAGGSASLAGRRRLCELDRRLLALNASPGGAADLLAACLFLDRLPAVSGGWAGSL, LGIAGLRYTFTFAVATAPSELLNITWYSAVSAAFNGALKFSITPLLPLGPITDERVEVSITALTPLSGVRSTSTALTPVRLCSAFAILFTDTKAEKLEFFEDTTERVDGDAVIPHTVNSETAALPTPFS, LGQTAYQKDSLARLARRGDELGTLARDFNRMGERLQSLIGSQRQLLRDVSHELRSPLARLRIALALAERAEPEARAQMWPRLEQECDRLEALIGEILALARLDAEPGASQRIALLPLLQRLREDALLLAPEQDIRLEVAPDLSIDGWPDMFERAVDNLLRNAVRFNPVGQPLEVRASSAGDYLRLSVRDHGPGIAAELQEQLGEPFFRAPNQSSPGHGLGLAIARRAIERHGGHLRLGNHPDGGFIATLSLPLRRKAT, LHLELEEKLAGIAAWEPTAPRLLNPGVSSGKALVASGVAAAHAREVLEDLGLRDVIPLWQVVQPYPLHTAFVERLLADYDEILVLEETTGVMELQLADRHRVKGKRSGFVPEVGELSPELVERLVAAFAGIPAAPSVAPPTGGGRRPTLCPGCPHRASFHAIKRAAPKGIYPSDIGCYTLGLNLGGVDTVLCMGAAVSQAAGFYHAYKLSGQVPDIVATIGDSTFFHAGIPPLIDAVVQDARFVLVILDNATTAMTGNQPTPALGWGAGGVPTATVDMEGLVKACGV, LLERLPVPVLAVQHDGVVVYSNRAFERMLDYPPNEVGNHLIGDLMQTASPGPSAVAELRESAGKLVALTHRDGSTVRAFVSESVLERHDDPVTLVCFHDVT, LQMLTLEEWAAEKYRSNPPSVSTLRRYAKQNLFCPPAMKQGRLWRVREDAELVGELVTPVIKKNDSLLLQRILSNGSQTA, LQVYTSDNQLIAEYGGKLSVPVEYNQIPPTFIHAFLAAEDSSFFEHSGISFKGLGRALSETVTGSNVQTGGSTITMQVAKNYYLSPERTLKRKLTEIFLARKIEQNLTKQEILSLYVNKIFLGKNAYGIAAAAKIYYNKTLDQLSIAEMAMISGLPKAPSKYNPVVNP, LRRGHLKLQRDGQIIGHTPEEWEQIFREVWPEYEIEPNPLPGYAPFDIGMWLTVEAPAYAVWIDPEDGSEYWAG, LSLLLEVSGNPKAGNVDREHDFDDLKFEHFLASAAGAFPAFLEVAEKRIIGEGVLRAVKESMRWHRAENVHFGAFLLLVPLISSWDAGGMVDIAEAARNRLRRTDFRDSLSVLEAFRLSNARVVEAGELNLKDRKTEEEIAQKKINLYEWMKMAPEENLIARELVDGFKISIEGAKFLLSFGNSGKAVVELYYHLLSKFPDPLVIAKMGREYAEKITEWAEKARTEEERKELDEKLLKDGANPGTIADLTASSI

Soluble on expression in E. coli, soluble:
LDDEDVDTVVDHCGDILEHFERLEEVPEVDAEPELVNVMRADEIADSLDQDDALANAPETEDGRF, LGTLFFSLEYNFERKAFVVNIKEARGLPAMDEQSMTSDPYIKMTILPEKKHKVKTRVLRKTLDPAFDETFTFYGIPYTQIQELALHFTILSFDRFSRDDIIGEVLIPLSGIELSEGKMLMNREII, LLAKEKYNGTESDDKYDPVEIVKWKIDREDGRKTLNSYINVLVLGLDDDEKRSDVIALINYNPDENKMNILSIARDTRVKVNGKYMKINALIGKGGEKMVIDMVEDITGLPVDYYVTLNFKGFREIVDTLGGVEINVPFDMDYDDPYQNLHIHLKKGKQVLDGKKAEQFVRYRKGNHNGEGYEDGDLGRIKMQQLFMREFVNQKLKLKYLLKADEIFYTLKKNMRTNIEIGDIRYFIKDIKNIKTPEINGYTLPGYSRYIGGQWFYIYDKKKTKELIEQNFYYSN, LLLFFPLGLQQPLLLLLSPPFQHEIQRRKEEIKEEKKRKEMAKQERLEIASLSNQDHTSKKDPGGHRTAAILHGGSPDFVGNGKHRANSSGRSRRERQYSVCNSEDSPGSCEILYFNMGSPDQLMVHKGKCIGSDEQLGKLVYNALETATGGFVLLYEWVLQWQKKMGPFLTSQEKEKIDKCKKQIQGTETEFNSLVKLSHPNVVRYLAMNLKEQDDSIVVDILVEHISGVSLAAHLSHSGPIPVHQLRRYTAQLLSGLDYLHSNSVVHKVLSASNVLVDAEGTVKITDYSISKRLADICKEDVFEQTRVRFSDNALPYKTGKKGDVWRLGLLLLSLSQGQECGEYPVTIPSDLPADFQDFLKKCVCLDDKERWSPQQLLKHSFINPQPKMPLVEQSPEDSGGQDYVETVIPSNRLPSAAFFSETQRQFSRYFIEFEELQLLGKGAFGAVIKVQNKLDGCCYAVKRIPINPASRQFRRIKGEVTLLSRLHHENIVRYYNAWIERHERPAGPGTPPPDSGPLAKDDRAARGQPASDTDGLDSVEAAAPPPILSSSVEWSTSGERSASARFPATGPGSSDDEDDDEDEHGGVFSQSFLPASDSESDIIFDNEDENSKSQNQDEDCNEKNGCHESEPSVTTEAVHYLYIQMEYCEKSTLRDTIDQGLYRDTVRLWRLFREILDGLAYIHEKGMIHRDLKPVNIFLDSDDHVKIGDFGLATDHLAFSADSKQDDQTGDLIKSDPSGHLTGMVGTALYVSPEVQGSTKSAYNQKVDLFSLGIIFFEMSYHPMVTASERIFVLNQLRDPTSPKFPEDFDDGEHAKQKSVISWLLNHDPAKRPTATELLKSELLPPPQMEESELHEVLHHTLTNVDGKAYRTMMAQIFSQRISPAIDYTYDSDILKGNFSIRTAKMQQHVCETIIRIFKRHGAVQLCTPLLLPRNRQIYEHNEAALFMDHSGMLVMLPFDLRIPFARYVARNNILNLKRYCIERVFRPRKLDRFHPKELLECAFDIVTSTTNSFLPTAEIIYTIYEIIQEFPALQERNYSIYLNHTMLLKAILLHCGIPEDKLSQVYIILYDAVTEKLTRREVEAKFCNLSLSSNSLCRLYKFIEQKGDLQDLMPTINSLIKQKTGIAQLVKYGLKDLEEVVGLLKKLGIKLQVLINLGLVYKVQQHNGIIFQFVAFIKRRQRAVPEILAAGGRYDLLIPQFRGPQALGPVPTAIGVSIAIDKISAAVLNMEESVTISSCDLLVVSVGQMSMSRAINLTQKLWTAGITAEIMYDWSQSQEELQEYCRHHEITYVALVSDKEGSHVKVKSFEKERQTEKRVLETELVDHVLQKLRTKVTDERNGREASDNLAVQNLKGSFSNASGLFEIHGATVVPIVSVLAPEKLSASTRRRYETQVQTRLQTSLANLHQKSSEIEILAVDLPKETILQFLSLEWDADEQAFNTTVKQLLSRLPKQRYLKLVCDEIYNIKVEKKVSVLFLYSYRDDYYRILF, LPAMEIECRITGTLNGVEFELVGGGEGTPEQGRMTNKMKSTKGALTFSPYLLSHVMGYGFYHFGTYPSGYENPFLHAINNGGYTNTRIEKYEDGGVLHVSFSYRYEAGRVIGDFKVMGTGFPEDSVIFTDKIIRSNATVEHLHPMGDNDLDGSFTRTFSLRDGGYYSSVVDSHMHFKSAIHPSILQNGGPMFAFRRVEEDHSNTELGIVEYQHAFKTPD, LSDEDFRAVFGMTRSAFANLPLWRQQNLRRERGLF
